Experimental data as given in the DeepSol protein solubility set.

Assay: soluble on expression in E. coli; label from the status in PepcDB or PDB records

| Sequence | soluble on expression in E. coli |
| --- | --- |
| MDSLEKIKEEVISCKKCKLWQFRTNAVPGEGYPKAEIMFVGEAPGENEDKEGRPFVGAAGKLLTQMIKEILGLERDQVFITNVVKCRPPNNRDPEEDEITACSPYLDRQIDIIMPKIIVTLGRHSTKYIFSKMGENFSSITKVRGKSYVWKYKEKEIIVFPTYHPAAALYNPNLRKILEEDFKKIRELAITPKRYTIDYFLGGKNRSWDKREKSDSNSGK | soluble |
| MSNTHEVRPGQSIELLKALHILTRDGKMNQDSRRKLKQVYHLYQFIEPLLQNARNARGAVTLVDHGAGKSYLGFILYDLFFKDRRDASHIYGIETRAELVQSATELAARLGFGGMSFLNLSVADSIASEQLPPRVDIVTALHACNTATDDAIRFALAKQAQSIVLVPCCQAEVAAVLRKNKARALADPMAELWRHPLHTREFGSQLTNVLRCLQLEAHGYQLSVTELVGWEHSMKNELIIARHQPGRPRREPARRLREMLERIGLQELSERFQVPAQP | not soluble |
| AADALVRVDGFERTSSSNTVTDIVPGVVLNLTKAAEGTKVTLGVTADTSGLKGNLTAFAAAYNTANTLLKNSSSYNAETRTASALTGDSLVRGLQQQLRGQVSGSISELKALGLTIDKDGVMSFDGGKFDTAIAADGGAAAEALGKDSKFGSGLTKLLDANVNVNNGTLTLRSDSLNKQIKGFEADLDNLDARMEKLTDRYTAQFTAMETMISKMQGATGSLSSLLAI | not soluble |
| GSHMAARRGALIVLEGVDGAGKSTQSRKLVEALCAAGHRAELLRFPERSTEIGKLLSSYLQKKSDVEDHSVHLLFSANRWEQVPLIKEKLSQGVTLVVDRYAFSGVAFTGAKENFSLDWCKQPDVGLPKPDLVLFLQLQLADAAKRGRARGELERYENGAFQERALRCFHQLMKDTTLNWKMVDASKSIEAVHEDIRVLSEDAIATATEKPLGELWK | soluble |
| MKKVFDVWDVETAKRFLEVIRNETIYYPVLIALHTGMRAGEIVSLKWYDVNFEARIISVVKSVRNNRGLKTSDVKTKTSKRSVYINDVLFSELKNLYETIKPKPDDFVCPRLPTGNLTVGYLSKRFKLLVKRYNFPVIRFHDLRHTFATLMLSLGVNTKIVAEILGHSDIKLTADTYSHVLPTMQESAMKEFSKLWKLEHHHHHH | not soluble |
| MIRVYIALGSNLAMPLQQVSAAREALAHLPRSRLVACSPLYRTKPLGPQDQPDFLNAVVALDTSLPPEQLLDHTQAIERNQGRVRKEQRWGPRTLDLDIMLYGDQVIKTDRLTIPHYGLKAREFMLYPLADIAPDLIFPDGESLSECLKRVDKNGLVLW | soluble |
| MAHHHHHHMLKFFTEKANHQALKAVLCAVFVQKPLEVTLGSTYSTPYLQLPKSRALLYSCNEAARLIWSTHAAPLPADNSLEGEAEWLEWESTVLTPALTPLYTHRRITGEAEAALKKLDSTIEEHQGTVAVKGAPSSTSFLVDSVLFASLLPALCEGGLLPAAQAARVPHLVKWFQAFQAEHAELIASAFDVLSVQECGDFLRVP | soluble |
| NKYYKLGEIAQKVLVGGEKPADFSKEKNEVYKYPILSNNSKAEEFLVYSKTFRVEEKSITVSARGTIGAVFYRDFAYLPAVSLICFVPKEEFDIRFLFHALRAIKFKKQGSATGQLTVAQFKEYGIHVPSLKKQKEIAAILDPLYS | not soluble |
| KMETAFDIERTMGRRIEYVSNILAVSESELGSLYSYDIMIDLGEEGKAKTPEALRALDSIARHAEAYSLTKRTTSILNILKDLNQTLHDGDQAYYSIPGDAEEVAQQLLLYENAGGSEAESWIDYEYRRLRLKVEMTSYNSGEAEWELQDITDYARKLFPEAEITPVGSLPQFTTMMQYVVRGQ | not soluble |
| MNQAIQFPDREEWDENKKCVCFPALVNGMQLTCAISGESLAYRFTGDTPEQWLASFRQHRWDLEEEAENLIQEQSEDDQGWVWLP | not soluble |
| MTEFTLAHLSDPHLPLPPKTSLRHLASKRALGYLNWRRNRHLIHRRDILDTLVADLQAQQPDHIAVTGDLVNIALVNEFAPARQWLESVGPADRVSLVPGNHDAYVRSTAHRFAETFPDYISGDDATPGFPYLRRREAIAIIGVSSAVPTAPLRATGWLGAPQRAALEALLQSLAGERVFKVLLIHHPLQSRSRHKRLTDAADLIALLQRHPVDLVLHGHDHVHATVRIDTPFGAIPVVGVPSASAMNDRHRPSAAYNLFKISEGNDGWRCLEHHHHHH | not soluble |
| GPVDPVKTFSEVLAAVEDRTISKELLDEKCRKILAFKYALIICKGISKELPAEEVVRQVNSREAERMSEDLWQASITILKNKKHFLPLSEGNRIACVNLDGAASNTFTQELGLTSKDCYSYAKGSNSTRTQELLSKLKGYDAVIVTVRHTQPDWAGTFLHRLTEQNHTAIVFFTSPYVADRIPAAMDKARAIVVAYENVKEAARMAAYKIRDRVVVSSGGGIPVVQEEEDTDPTANMMPPTELSSGLIPMPA | not soluble |
| MQYHRIPHSSLEVSTLGLGTMTFGEQNSEADAHAQLDYAVAQGINLIDVAEMYPVPPRPETQGLTETYVGNWLAKHGSREKLIIASKVSGPSRNNDKGIRPDQALDRKNIREALHDSLKRLQTDYLDLYQVHWPQRPTNCFGKLGYSWTDSAPAVSLLDTLDALAEYQRAGKIRYIGVSNETAFGVMRYLHLADKHDLPRIVTIQNPYSLLNRSFEVGLAEVSQYEGVELLAYSCLGFGTLTGKYLNGAKPAGARNTLFSRFTRYSGEQTQKAVAAYVDIARRHGLDPAQMALAFVRRQPFVASTLLGATTMDQLKTNIESLHLELSEDVLAEIEAVHQVYTYPAP | soluble |
| MRKNVSDLEYTTWFAPVKPLGVQEGSLLLGVRNSFTKDWFRDHYLELLLAALRSLGAEHPQVEFQVLPAAQDALLLPNDPPPAPEAAAPTPKTKAAPTPPPSTPGDNRKTLNPKYTFENFVVGPNNNLAHAAALAVAESPGKAYNPLFIYGDVGLGKTHLMHAVGHYLAERFPEKRIEYVSTETFTNELINAIRDDKTTQFRNRYRSVDLLLVDDIQFLAGKERTQEEFFHTFNALYESNKQIILSSDRPPKDIQTLEGRLRSRFEWGLITDIQSPEYETRVAILKMNAEQGHITIPQEVLELIARQVTSNIRELEGALMRVVAFASLNNVPFSRAAAAKALSNVFAPQEAKVEMTDVLRQVAAHYGTTPDLIRGSGRARDIVVPRQVAQYLIRALTDHSLPEIGQFFGRDHSTVMHAVSKITEQMGKDPELAATVNTLRNRIQGKEEEEEVGALEHHHHHH | not soluble |
| MRIPRIYHPISLENQTQCYLSEDAANHVARVLRMTEGEQLELFDGSNHIYPAKIIESNKKSVKVEILGRELADKESHLKIHLGQVISRGERMEFTIQKSVELGVNVITPLWSERCGVKLDAERMDKKIQQWQKIAIAACEQCGRNIVPEIRPLMKLQDWCAENDGALKLNLHPRAHYSIKTLPTIPAGGVRLLIGSEGGLSAQEIAQTEQQGFTEILLGKRVLRTETASLAAISALQICFGDLGEAAAAAALEHHHHHH | soluble |
| MKILPLALFIIPFLAGCGANNTPPQTPIPGEKTSAKLRTLETGAAAIQSRPPVDAISTYLDGFHFYSGDKNGQMEAHHYVTVLNEDVMQAVIYDGNTKNARLMGVEYIISERLFKTLPPEEKKLWHSHQYEVKSGSLVAPGLPQVADKALMSKIVNTYGKTWHTWHTDRDKTLPMGIPALMMGFTGDGQLDPALLADRDRRLGIDTQAIKRERQDLPEHPVVKGANAWEQGEVIQLQRVQGSGEHGRGDTAHFGTSEQSRQ | not soluble |
| MKIEEGKVVIWHAMQPNELEVFQSLAEEYMALCPEVEIVFEQKPNLEDALKAAIPTGQGPDLFIWAHDWIGKFAEAGLLEPIDEYVTEDLLNEFAPMAQDAMQYKGHYYALPFAAETVAIIYNKEMVSEPPKTFDEMKAIMEKYYDPANEKYGIAWPINAYFISAIAQAFGGYYFDDKTEQPGLDKPETIEGFKFFFTEIWPYMAPTGDYNTQQSIFLEGRAPMMVNGPWSINDVKKAGINFGVVPLPPIIKDGKEYWPRPYGGVKLIYFAAGIKNKDAAWKFAKWLTTSEESIKTLALELGYIPVLTKVLDDPEIKNDPVIYGFGQAVQHAYLMPKSPKMSAVWGGVDGAINEILQDPQNADIEGILKKYQQEILNNMQG | soluble |
| MSDAMPLDQTLEQLTQDEWIDIPQGWSQGRTIYGGLVAGLLMHKALSVMNDESKNLLSTSITFVGPVNEGRVRLTVEILRQGKSVTTIEARLWQDQAVQTILIASFGQPRSSEIFVLEHHHHHH | soluble |
| MGSDKIHHHHHHMKIRVDIIGLKGGVGKTTIALNTALYLSKRYKVLYIDKDLLSMGSLILGFNGLGFNKAIVEGLGNEQYEYKVNNNLTLFKLYSDPVNERELQHKVKGMGEKAERAYVDVVSKGYDVIIVDYGRIFRTNDPLVYDEYEMFKKNFPDYTIAAAGITDAIRNDVTDVVKYFLDTINRIKAKPLAFVINMVPQIGDIQKEINQIVREISEVVKCDILTIPFNEKLVQYANMGEVEEMQKVGKLIERILSNG | not soluble |
| MADVALRITETVARLQKELKCGICCSTYKDPILSTCFHIFCRSCINACFERKRKVQCPICRSVLDKRSCRDTYQITMAVQNYLKLSEAFKKDIENMNTFKSLPPEKMFMESQMPLDITIIPENDGKRCAPDFAIPFLPVRRKRPSRPQPPSAFAEEPAEPVEPPEPATKQPVELQSRVFPLEKLKKDVETSTETYKISREELKNVDIEEYINTLRENSTEIDEIDALFQLMPTMRQFLRNNINQLMEKFHVAPPKKSEKPANRRVSFASSQDLENIKIMTASESLETPPEPIQKLAQKPEVFKSTQNLIDLNLNTAVKKPVVVASDDDEVVEDSEGELQIDEDDLANVTCATSVRNIGKSLCAEYIREGRSISQKSTAYLYAIARKCVIVGRQWLVDCITTGLLLSEADYTITSCSSTIPVKIPPSIGSEMGWLRSRNDEHGKLFAGRRFMILRKFTMNPYFDYKQLIELVQQCGGEILSCYENLSPEKLYIIFSKHSKAIEESKNIENLYKCDVVTMEWVLDSISEYLILPTQPYKAVDSIGCLQD | not soluble |
| MYRSEVSKPQLENPNLVDRIIVIILPNYFYEYESVLKHITKENFGIIEKTVKHFKTEEVMEWKSADLESQDIWNLSDRLIDGPCMLLLCQRANAFIEMKEVAKYHNVIAKRMSSSDGIYYSKTTIAAYHDIIFFFPKYIDERAMLKHAKDYLSVEVWPKLSQGLARVAVERPDNPIKWLADYLHQLRQ | not soluble |
| MLIIETLPLLRQQIRRLRMEGKRVALVPTMGNLHDGHMKLVDEAKARADVVVVSIFVNPMQFDRPEDLARYPRTLQEDCEKLNKRKVDLVFAPSVKEIYPNGTETHTYVDVPGLSTMLEGASRPGHFRGVSTIVSKLFNLVQPDIACFGEKDFQQLALIRKMVADMGFDIEIVGVPIMRAKDGLALSSRNGYLTAEQRKIAPGLYKVLSSIADKLQAGERDLDEIITIAGQELNEKGFRADDIQIRDADTLLEVSETSKRAVILVAAWLGDARLIDNKMVELA | soluble |
| MASRGLDLWLDEHVWKRKQEIGVKGENLLLPDLWLDFLQLSPIFQRKLAAVIACVRRLRTQATVYPEEDMCMAWARFCDPSDIKVVILGQDPYHGGQANGLAFSVAYGFPVPPSLRNIYAELHRSLPEFSPPDHGCLDAWASQGVLLLNTILTVQKGKPGSHADIGWAWFTDHVISLLSERLKACVFMLWGAKAGDKASLINSKKHLVLTSQHPSPLAQNSTRKSAQQKFLGNNHFVLANNFLREKGLGEIDWRL | soluble |
